Results: the DeepSol protein solubility set

Test: soluble on expression in E. coli; label from the status in PepcDB or PDB records

Row | Sequence | soluble on expression in E. coli
1 | MLLSIITVAFRNLEGIVKTHASLAHLAQAEDISFEWIVVDGGSNDGTREYLENLNGIYNLRFVSEPDNGIYDAMNKGIAMAQGKFALFLNSGDIFHQDAAYFVRKLKMQKDNVMITGDALLDFGDGHKIKRSAKPGWYIYHSLPASHQAIFFPVSGLKKWRYDLEYKVSSDYALAAKMYKAGYAFKKLNGLVSEFSMGGVSTTNNMELCADAKKVQRQILHVPGFWAELSWHLRQRTTSKTKALYNKS | not soluble
2 | MSLNMKTFKFFTALFATAILTACTLDMERPTNVQYIDKTDAIWQQHLQKIQKIQSYQAKGQIGYISPTERFSSRFEWQYQNPKSYTLKLYSLISKSTLWIQMHQSGMTISDNNGNQQSAANSKLLLQEIIGMDVPLEHLAYWLKGQPAMNADYQVGTNHLLGAFTYHVDGSQWTADYLTYHSNNSMPENILLKNDSTKQTLKIRVDEWIYEGGSHHHHHH | soluble
3 | KELIMCLSGSILRSATQQYSVGDYIEINGLRGRVVDINLLNTLMMQVGPNPLVGQLAGTTVSFPNSLLLSHPVRRDNILGDYVIHTVEIPVPIHLDSDEAVCRLKAVLEPLCAPYIPAIQRHLENVQAEKLFITPAARPRVTRVPYDDKAYRIIVRFASPVSKRLEIQQAVMDEFLRVQYRLLNHPAGSETL | not soluble
4 | GMMNTPESRLVAAGLELPEVAAALGNYEPYSIVGSQLMTSGQFPYLQGKLLYQGQLGADYTVSEGYAACRLATLNAIAQLKQACGELSRIKQIYRLEGVLNVHQSCIEHPKALDGASDLLLEIFGEAGRHSRMIWTNPVMPLNSLCLVYLFAEL | soluble
5 | MSLNEESFEEFSMVLEDDLVGGTFSKVGEHNKRENEDFYITKDILDLNNVSESQGLCFYSGIFDGHGGSNCARYVMNHLKTNVIAKFRQSFLITCKKKFKEKGSKLNELSVELRALYDSCIKGFDMTDKNYIELSKKYNYKDGSTACIVLIYGPDDDGSLKVLCANCGDSGAFICHNKKPIKLSLRHKPDLQEERIRILKCGGIIANINGINRIITKHKDRNNLNENNNNKSKEKTFLALSTSRSFGDISYKIPRKIVQCKPFISVYTIDFDLDSFLVLATDGILNVLSDEEIIDIIWKNIHRKPEQAAEEVVNEATRRGSTDDKTCTVIFFYWRKEGHHHHHH | soluble
6 | MKQLNFKKIFLNLLWPLLPFTAQAQENNTLYSILSKDNILVSSPSVQNQEEDIVTQMPNRHHKYDKRVHRYRRAWEALIPTHTKLQYAGGMGLLSWGIGWDYGKRGQWETDLLLGFIPRYSSKHFKMTMTLKQNYIPWSIWLGKDFSLEPLTTGIYFNTVFSDDFWTSEPERYPRGYYGFSTRIRTHIFLGQRVRFDVPEKYRKFSKSITAFYEISTCDLYVVSAFNNSYLKPDDYLRLSFGLKFQIF | not soluble
7 | MGGSHHHHHHGMASALDPAGGPRGVLPRPCRVLVLLNPRGGKGKALQLFRSHVQPLLAEAEISFTLMLTERRNHARELVRSEELGRWDALVVMSGDGLMHEVVNGLMERPDWETAIQKPLCSLPAGSGNALAASLNHYAGYEQVTNEDLLTNCTLLLCRRLLSPMNLLSLHTASGLRLFSVLSLAWGFIADVDLESEKYRRLGEMRFTLGTFLLLAALRTYRGRLAYLPVGRVGSKTPASPVVVQQGPVDAHLVPLEEPVPSHWTVVPDEDFVLVLALLHSHLGSEMFAAPMGRCAAGVMHLFYVRAGVSRAMLLRLFLAMEKGRHMEYECPYLVYVPVVAFRLEPKDGKGVFAVDGELMVSEAVQGQVHPNYFWMVSGCVEPPPSWKPQQMPPPEEPL | not soluble
8 | GHMYETIRYEVKGQVAWLTLNRPDQLNAFTEQMNAEVTKALKQAGADPNVRCVVITGAGRAFCAGEDLSGVTEEMDHGDVLRSRYAPMMKALHHLEKPVVAAVNGAAAGAGMSLALACDFRLLSEKASFAPAFIHVGLVPDAGHLYYLPRLVGRAKALELAVLGEKVTAEEAAALGLATKVIPLSDWEEEVKQFAERLSAMPTKAIGLIKRLLRESEETTFDRYLEREAECQRIAGLTSDHREGVKAFFEKRKPLFQGN | soluble
9 | MGSDKIHHHHHHMTQKESIRLFEERKVRAIWDDEQEEWYFSIVDVISILTDSPNPRKYWSVLKTRLKREGSELTTNCSQLKMQAADGKKYLTDVANTEQLFRLIQSVPSPKAEPFKLWIAQVAKERLDQMQDPELSIEQAMADYKRLGYSDNWINQRLKSIEIRKDLTDEWKKRGLEEGLHFATLTDIIYKSWSDMTSKEYKRFKGLRKENLRDNMTNKELVLNMLAELSTKEISEASEPDTFSEHINVAQQGGEVARNARLELEAKTGKSVISPLNAQKIISLKKGENERDV | not soluble
10 | ETVQVNLPVSLEDLFVGKKKSFKIGRKGPHGASEKTQIDIQLKPGWKAGTKITYKNQGDYNPQTGRRKTLQFVIQEKSHPNFKRDGDDLIYTLPLSFKESLLGFSKTIQTIDGRTLPLSRVQPVQPSQTSTYPGQGMPTPKNPSQRGNLIVKYKVDYPISLNDAQKRAIDENF | soluble
11 | MSLKYYIGLACTGHENALAIVNPDGEIVFAEATERFLQNKRAVNTPPDDPLRIPRLLKQYCSDCDAIVVAKTWSREAPQKMRTDAAHILKALAGTDARTDRDWVARVAFHAGLGDKLIEPNYRLAGNGIERYCSLQGLEHSVRSYEHHLTHAAYACHTSPFDDAVCAVFDGYGEGVHSSYFHYRNGKVEPIRRARSAKGQYGSLASLGLYYGYTICALLGLDIVNGEEWKVMGLAPYGQLNPAFLDVLRRHIYVDGLDLVMDGNAAGTYRELQAFARRPGQSYESVADIAYTAQHYFSELMLEMLAGLRQLGLSDRLVLTGGCALNSTFNGEVIPRSGFAQLYVPPAPSDDGNAVGAALLAYAEDGGAMSRPAFHSPYLGSAIDDRELAPFLKNGAMLGQVPVTPGELCDYVAQELADGKVIGWIQGSAEFGPRSLGNRSILADPRRASMKERINAIVKFREGFRPFAPSILDEFGDRYFEDYSATPYMEKTLKIREAYREAIPAVCHVDHTGRLQTVRRDWNPRFHALLSAFHARTGTPVLLNTSLNVMGKPIVHSAADAFTVFLSTGLDLLVINDHVFSKREGHHHHHH | soluble
12 | MESTSTTVPSIVVYVTVPNKEAGKRLAGSIISEKLAACVNIVPGIESVYWWEGKVQTDAEELLIIKTRESLLDALTEHVKANHEYDVPEVIALPIKGGNLKYLEWLKNSTRES | soluble
13 | MLRTEHYAFLPCISRALEERDSLGIRRELRARQQRLSMQQSRSKLGRVCVTGANSPLGQELVGALTRTPDPSLRPDAIGVIGARDPIESHSAGAGLHFPGPGVDFLECAATDLEHYNPRTLFSINDDDLGLRRRSIFRENQVVIDLLRAQGETNEPRSKTRLVLVTLLGCGDSEDAIPSQAFDVLRPLLLELSRVEQYVRESGLPYTIVRPGALEHGDADSRAIVSESKVGFGTIHRSTLAHLLLNVAASEKAVNKTLMALDMNRLLVAAPYVRPFEVWESPPFEVFDL | soluble
14 | SDRKSDRELLYFRKKLQRKLGPISIATPEALLNAHEMLRDKMHYFIEQTQCSVGIFIHRGFKHAGKVLLLMENEGDEELLAYARSLARNNGSVLDVLPETDGLPPTLSMGENRLKAGLPSTINISSYHFMLVSYRYWLRFAGECPSVIEHLPSTIIIHHRNDRSSTLKAAMI | not soluble
15 | MAHHHHHHMTETTGARGRRTFMGRRRSQHEVQTEASFVPGCSSLEYAYDPLASEQYANLVELRQMIHSCLTLVAGDVYDVVSFKDILYHLESEMPSSLPVTDLLLLSSRLFRRTAELGRLLSCFFGVVFADDRNDEHFRFAEVRLLQREIRELKRQLSASEEERRRLKEMLDNVGQVAYDHGRAVELLETHNKVLKKQSTALEDQMALLFHQLNTGLEGHCKSAYQQVTGEMMVQESLNPARITFRQTMDSLSEQLRGSRGLITDVREVLLSCSQGRRTGEAYAAVEPTVRFKLKMLEANFQQLMGRFTAVKDTVVETAQELMNALQERKKILCLSFQHIRLYDLQNAKLRNARAILAQLQHNTSEVVRRIRVTFPSGNLTSVDRFGNIRTQRWHGGYTLATLRGYNLTEQQQQGEGEMSEVARSSTAVPSLTAGASRTLPGLTESQIMAAESEMAVIDGGVHSVTPVGLALSPGFRSMRASHSGVSPPPLRTSVPPSRGGSKLASARGSSSTTGMPAPVSAPTSVRSDDPDVLPFESVSTFVDLMHDIHDDMDELQSALVLDDEMAAFLKVLTLSASTTPRADALEIAGDPTGRAALLERQEYNMETALQPTGGRPGGTRGAPSSASVVSGNESITALEANSFSSLFSKMGTPSTSSEARGGARAENASSEAVMARQAVQLQRQQKQIAKMQEDFTSKVGFLRQVYEARIGDLEVRETTVSKRLGLVGGSAFQRGAGDGGSGRSSPGVRKGEDESPVSSSPGDKERLTKLRKEWRQSKRKLQPNRKLREATAEQLQLMQKDEKL | not soluble
